Test results published in US20020065240A1.

Target: VEGF mitogenic receptors
Assay: cell-based or functional assay

B1: recombinant human VEGF145, P15692 207-395 (ligand)
chain: APMAEGGGQNHHEVVKFMDVYQRSYCHPIETLVDIFQEYPDEIEYIFKPSCVPLMRCGGCCNDEGLECVPTEESNITMQIMRIKPHQGQHIGEMSFLQHNKCECRPKKDRARQEKKSVRGKGKGQKRKRKKSRYKSWSVCDKPRR
Q: For B1, which half-maximal activity, HUVEC mitogenesis ([3H]thymidine incorporation) is on record?
A: The half-maximal activity, HUVEC mitogenesis ([3H]thymidine incorporation) was 17 to 19 ng/mL.
